From patent US20090092640A1 (UNIVERSITY OF CHICAGO, published 2009) come the findings set out here.

The target in the experiment is T1, mutant murine LIGHT (a.a. 79-82, EKLI, deleted), expressed on the cell surface (murine, UniProt Q9QYH9 1-239).
T1 construct: The deletion of a.a; 79-82 is written as two ranges of the natural protein; also called mutant LIGHT; LIGHT^m
T1 sequence: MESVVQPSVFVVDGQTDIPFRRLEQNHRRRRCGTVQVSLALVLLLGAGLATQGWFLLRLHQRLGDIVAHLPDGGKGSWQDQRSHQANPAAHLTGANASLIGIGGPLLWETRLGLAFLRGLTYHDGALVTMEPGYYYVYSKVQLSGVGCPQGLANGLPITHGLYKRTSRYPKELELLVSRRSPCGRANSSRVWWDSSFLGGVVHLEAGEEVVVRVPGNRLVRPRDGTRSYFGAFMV
Put plainly: flow cytometry and fluorescence microscopy, 293 cells expressing mutant murine LIGHT, stained with murine LTbR-Ig and a labelled anti-Ig. On the procedure: 293 cells, a human kidney cell line, are commonly and easily used for transient expression of gene at relative high level of gene. 293 cells were seeded in 6 well plate and transfected with 2 μg DNA of pAdCMVmLIGHT (wild type murine LIGHT), pAdCMVmmLIGHT (mutant murine LIGHT) or pAdCMVcommLIGHT (codon optimized mutant murine LIGHT by GNENART, Berlin, Germany). Codon modification is to optimize gene codon to allow higher expression of protein without changing protein sequences. Transfection was performed using Lipofectmin 2000 reagent. 48 hours after transfection, cells were detached and incubated with recombinant mLTbR-huFc protein (10 μg/ml) followed by staining with PE conjugated Donkey anti-human IgG antisera. Cells were washed and analyzed by flowcytometry (BD FACSArray Bioanalyzer). Transfection were carried out in triplicates and only one representative result is shown. […] Cells were also examined visually by fluorescent microscopy. Representative results are shown in lower panel. (see FIG. 18). High expression of LIGHT is required to have stronger response. However, protease digestion of LIGHT often reduces its stability on cell surface.

B1: recombinant mLTbR-huFc protein (Fc fusion, mouse, UniProt P50284 31-223, looked up)
chain: QLVPPYRIENQTCWDQDKEYYEPMHDVCCSRCPPGEFVFAVCSRSQDTVCKTCPHNSYNEHWNHLSTCQLCRPCDIVLGFEEVAPCTSDRKAECRCQPGMSCVYLDNECVHCEEERLVLCQPGTEAEVTDEIMDTDVNCVPCKPGHFQNTSSPRARCQPHTRCEIQGLVEAAPGTSYSDTICKNPPEPGAMLL
notes: also called mouse LTbR-Ig; murine LTbR-Ig; not shown: human Fc
Turning to B1, the binding result is reported as “binds”.
